Reference: PMC5389851

Molecular target: HCMV glycoprotein gO (virion, strain TB40) (human cytomegalovirus strain TB40 (endogenous in virions))

## recombinant human PDGFR-α-Fc fusion protein (from UniProt P16234)
  infection of HFF with wt TB40-luc virus pre-incubated with PDGFR-α-Fc (one hour at 4°C; luciferase assay), residual infection; blocks gH/gL/gO of virions with PDGFR-α on HFF: 0.5%
